Consider one molecule from paper PMC5551578.

This test deals with HIV-1 92BR-gp120 (HIV-1 (92BR)). Briefly: BLI. On the technique in general: Biolayer interferometry detects binding as a change in optical thickness at a sensor tip.

B1: gp120-Ab8 (antibody, V domains shown)
VH: EVQLVESGGGVVQPGRSLRLSCAASGFTFSFYGMHWVRQAPGKGLEWVAVISYDGRIKSYADSVKGRFTTSRDNSKNTLYLEMSSLRVEDTAVYYCAKSLVGATLLGPFGPWGQGSLVTVSS
VL: SYELTQPPSVSVAPGQTARITCGGDKIGGERVHWYQQKPGQAPVLVVYDDRDRPSGIPERFSGSNSGNTATLTISRVEAGDEADYYCQVRDSTSDHYVFGSGTKVTVL
B1 came in with a Kd of 89.3 nM.

The term Kd denotes a measure of binding affinity in units of concentration.
